Assay results published in patent US20250326860A1 (ADAGENE PTE, published 2025).

What was measured:
[1] = molecular target: T1, human CD20 on cells (human B cells; Raji, SU-DHL-8, SU-DHL-4, A3KAW, NAMALWA) (human, UniProt P11836 1-297); assay: flow cytometry, SU-DHL-8 cells
T1 construct: whole, on cells
T1 sequence (looked up): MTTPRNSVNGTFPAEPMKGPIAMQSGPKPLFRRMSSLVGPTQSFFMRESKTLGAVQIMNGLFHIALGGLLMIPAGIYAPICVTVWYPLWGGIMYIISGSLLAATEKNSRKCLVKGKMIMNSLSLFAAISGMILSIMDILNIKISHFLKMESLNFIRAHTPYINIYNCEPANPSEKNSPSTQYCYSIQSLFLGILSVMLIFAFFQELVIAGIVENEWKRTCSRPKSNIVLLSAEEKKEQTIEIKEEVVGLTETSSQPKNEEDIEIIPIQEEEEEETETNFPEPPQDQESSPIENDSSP
Procedure: (§1) Raji, SU-DHL-8, SU-DHL-4, A3KAW and NAMALWA were B-cell lymphoma cell lines with various CD20 expression levels on cell surface. Briefly, the test antibodies were serial diluted and were incubated with the tumor cells on ice. After washing, the cells were subsequently incubated with the APC-labelled anti-human-Fc secondary antibody (BioLegend) on ice. The cells were then washed with PBS prior to analysis by the CytoFLEX flow cytometer (Beckman Coulter). The data was analyzed by FlowJo software.

[2] = molecular target: T1, human CD20 on cells (human B cells; …); assay: binding to Raji cells
[3] = molecular target: T1, human CD20 on cells (human B cells; …); assay: flow cytometry, human B cells
Source text: (§2) Human and monkey PBMCs were isolated as mentioned above. Human B cells were further isolated from PBMCs using the EasySep™ Human B Cell Isolation Kit (Stem Cell Technologies). Monkey B cells were isolated from PBMCs using the Non-Human B Primate Cell Isolation Kit (Stem Cell Technologies). Purified human or monkey B cells were stained with the testing antibodies as the primary antibody and the APC-labelled anti-human-Fc antibody (BioLegend) as the secondary antibody. After washing, the cells were analyzed on the CytoFLEX flow cytometer (Beckman Coulter) and the data was analyzed by FlowJo software.

[4] = molecular target: T1, human CD20 on cells (human B cells; …); assay: flow cytometry, Raji cells
Procedure: as §1

[5] = molecular target: T2, human CD3 on cells (Jurkat cells, human T cells) (human, UniProt P07766 23-207); assay: flow cytometry, human CD3+ T cells
T2 construct: whole, on cells
T2 sequence (P07766 23-207): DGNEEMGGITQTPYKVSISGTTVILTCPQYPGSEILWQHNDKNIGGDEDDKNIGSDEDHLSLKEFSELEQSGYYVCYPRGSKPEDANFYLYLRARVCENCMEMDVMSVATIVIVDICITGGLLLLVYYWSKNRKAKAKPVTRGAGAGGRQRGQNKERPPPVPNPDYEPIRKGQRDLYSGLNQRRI
Source text: (§3) Human PBMCs were freshly isolated from the blood of healthy donors by density gradient centrifugation using Histopaque-1077 (Sigma). Human CD3+ T cells were further isolated from PBMCs using the Human T Cell Enrichment Kit (Stem Cell Technologies). Monkey PBMCs were isolated from a naïve cynomolgus monkey by density gradient centrifugation using Histopaque-1077 (Sigma). Monkey CD3+ T cells were isolated from PBMCs using the Pan T Cell Isolation Kit Non-Human Primate (Miltenyi Biotec). Purified human or monkey CD3+ T cells were stained with the testing antibodies as the primary antibody and the APC-labelled anti-human-Fc antibody (BioLegend) as the secondary antibody. After washing, the cells were analyzed on the CytoFLEX flow cytometer (Beckman Coulter) and the data was analyzed by FlowJo software.

[6] = molecular target: T3, cynomolgus monkey CD3 on T cells (cynomolgus monkey, UniProt Q95LI5 22-198); assay: flow cytometry, purified monkey CD3+ T cells
T3 construct: whole, on cells
T3 sequence (Q95LI5 22-198): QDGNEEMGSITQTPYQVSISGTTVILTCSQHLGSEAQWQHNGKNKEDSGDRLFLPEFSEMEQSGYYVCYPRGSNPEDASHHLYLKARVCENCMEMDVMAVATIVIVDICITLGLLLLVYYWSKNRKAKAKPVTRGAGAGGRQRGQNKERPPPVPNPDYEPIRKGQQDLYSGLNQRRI

[7] = molecular target: T1, human CD20 on cells (human B cells; …); assay: flow cytometry, NAMALWA cells
Procedure: as §1

[8] = molecular target: T2, human CD3 on cells (Jurkat cells, human …); assay: binding to human CD3+ T cells
[9] = molecular target: T2, human CD3 on cells (Jurkat cells, human …); assay: binding to human CD8+ T cells
[10] = molecular target: T2, human CD3 on cells (Jurkat cells, human …); assay: binding to human CD4+ T cells
[11] = molecular target: T4, cynomolgus monkey CD20 on B cells (cynomolgus monkey, UniProt M4ZHZ6 1-297); assay: flow cytometry, monkey B cells
T4 construct: whole, on cells
T4 sequence: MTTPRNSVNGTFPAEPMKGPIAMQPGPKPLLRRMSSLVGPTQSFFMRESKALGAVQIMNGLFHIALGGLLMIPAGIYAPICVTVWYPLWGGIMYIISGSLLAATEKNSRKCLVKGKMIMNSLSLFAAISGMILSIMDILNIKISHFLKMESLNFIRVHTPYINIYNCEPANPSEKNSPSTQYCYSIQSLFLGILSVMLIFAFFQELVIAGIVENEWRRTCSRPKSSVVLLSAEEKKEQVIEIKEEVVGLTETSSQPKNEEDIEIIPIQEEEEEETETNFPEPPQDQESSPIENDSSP
Source text: as §2

[12] = molecular target: T1, human CD20 on cells (human B cells; …); assay: binding to human B cells
[13] = molecular target: T3, cynomolgus monkey CD3 on T cells; assay: flow cytometry, monkey CD3+ T cells
Source text: as §3

[14] = molecular target: T1, human CD20 on cells (human B cells; …); assay: flow cytometry, SU-DHL-4 cells
Procedure: as §1

[15] = molecular target: T1, human CD20 on cells (human B cells; …); assay: flow cytometry, A3KAW cells
Procedure: as §1

EC50 [1]: 43 nM
Max MFI [1]: 5790 MFI
EC50 [2]: 35 nM
EC50 [3]: 11.7 nM
max MFI [3]: 51600 MFI
EC50 [4]: 35 nM
Max MFI [4]: 24200 MFI
max MFI [5]: 1090 MFI
binding result [6]: no binding
EC50 [7]: 90.4 nM
Max MFI [7]: 656000 MFI
EC50 [8]: > 2000 nM
EC50 [9]: > 2000 nM
EC50 [10]: > 2000 nM
EC50 [11]: 14.4 nM
max MFI [11]: 36000 MFI
EC50 [12]: 78.2 nM
max MFI [13]: 174 MFI
EC50 [14]: 16 nM
Max MFI [14]: 2.67e+06 MFI
EC50 [15]: 121 nM
Max MFI [15]: 942000 MFI
B1: TY25606 (bispecific antibody, human IgG1, kappa, N297A)
light: QIVLSQSPAILSASPGEKVTMTCRASSSVSYIHWFQQKPGKSPKPWIYATSNLASGVPVRFSGSGSGTSYSLTISRVEAEDAATYYCQQWTSNPPTFGGGTKVEIKRTVAAPSVFIFPPSDEQLKSGTASVVCLLNNFYPREAKVQWKVDNALQSGNSQESVTEQDSKDSTYSLSSTLTLSKADYEKHKVYACEVTHQGLSSPVTKSFNRGEC
heavy: EVQLVQSGAEVKKPGSSVKVSCKASGYTFTSYNMHWVRQAPGKGLEWIGAIYPGSGDTSYNQKFKGRVTITADKSTSTAYMELSSLRSEDTAVYYCARSTYYGGDWYFNVWGQGTLVTVSSASTKGPSVFPLAPSSKSTSGGTAALGCLVKDYFPEPVTVSWNSGALTSGVHTFPAVLQSSGLYSLSSVVTVPSSSLGTQTYICNVNHKPSNTKVDKKVEPKSCDKTHTCPPCPAPELLGGPSVFLFPPKPKDTLMISRTPEVTCVVVDVSHEDPEVKFNWYVDGVEVHNAKTKPREEQYASTYRVVSVLTVLHQDWLNGKEYKCKVSNKALPAPIEKTISKAKGQPREPQVYTLPPSRKKLTKNQVKLTCLVKGFYPSDIAVEWESNGQPENNYKTTPPVLDCDGSFFLYSKLTVDKSRWQQGNVFSCSVMHEALHNHYTQKSLSLSPGK
chain: EVGSYPYDDPDCPSHESDCDQGGGPLGLAGGSQAVVTQEPSLTVSPGGTVTLTCGSSTGAVTTSNYPNWVQQKPGQAPRGLIGGTNKRAPGVPARFSGSLLGGKAALTLSGAQPEDEAEYYCALWYSNLWVFGGGTKLTVLGGGGSGGGGSGGGGSGGGGSEVQLVESGGGLVQPGGSLRLSCAASGFTFNTYAINWVRQAPGKGLEWVGRIRSKYNNYATYYAESVKGRFTISRDDSKNTLYLQINSLRAEDTAVYYCVRHGNFGTSYVSWFAYWGQGTLVTVSSEPKSSDKTHTCPPCPAPELLGGPSVFLFPPKPKDTLMISRTPEVTCVVVDVSHEDPEVKFNWYVDGVEVHNAKTKPREEQYASTYRVVSVLTVLHQDWLNGKEYKCKVSNKALPAPIEKTISKAKGQPREPQVYTDPPSRDELTKNQVSLTCLVDGFYPSDIAVEWESNGQPENCYKTTPPVLDSDGSFFLYSKLTVDKSRWQQGNVFSCSVMHEALHNHYTQDSLSLSPGK
notes: also called SAFEbody/bispecific
